Laboratory results reported in patent US20200262921A1 (SHANGHAI KANDA BIOTECHNOLOGY, published 2020).
Where two headings read alike, the source gives them in different places.

T1: Recombinant human CTLA-4-Fc fusion protein (R&D Systems, Catalog number 352-CTY/CF) (human, UniProt P16410 37-162)
T1 construct: range 37-162; Bought reagent; also called rhCTLA-4; rhCTLA-4-Fc; not shown: immunoglobulin gamma I Fc region
T1 sequence (looked up): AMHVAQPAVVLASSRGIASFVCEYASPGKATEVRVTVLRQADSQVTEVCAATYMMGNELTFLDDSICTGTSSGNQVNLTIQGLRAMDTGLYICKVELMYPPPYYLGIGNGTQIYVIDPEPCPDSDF

B1: C5 mAb (anti-human CTLA-4 full length human monoclonal antibody) (antibody, V domains shown)
VH: QVQLVQSGAEVKKPGASVKVSCKASGFSFPNYYMHWVRQAPGQGLEWMGIISPTGGSRTYAQKFQGRVTITRDTSTSTVYMELSSLRSEDTAVYYCAREMYNWNGGWDYGMDVWGQGTLVTVSS
VL: QSALTQSASVSGFPGQSITVSCVGTNSDVEAYDLVSWYRQHPDKSPNLLIYDNYKRPSGVSDRFSAFKSGNTASLTISGLQAEDEAYYYCCSYAGFSTWIFGAGTQLTVLG
notes: also called clone C5; KD6001-5
B2: C15 (scFv, V domains shown, not shown: large carriers; small tags and cut ends)
VH: QVQLVQSGAEVKKPGSSVKVSCKASGGTFSSYAISWVRQAPGQGLEWMGGIIPIFGTANYAQKFQGRVTITADESTSTAYMELSSLRSEDTAVYYCARDTAMALFYYYYGMDVWGQGTLVTVSS
VL: QSALTQPASVSGSPGQSTTISCTGTSSDVGGYNYVSWYQQHPGKAPKLMIYEVSNRPSGVSNRFSGSKSGNTASLTISGLQAEDEADYYCSSYRSSGTPYVFGTGTKLTVL
notes: scFv phage form of clone C15; also called clone C15 scFv phage; C15 scFv; copies: 1 + 1
B3: C2 mAb (anti-human CTLA-4 full length human monoclonal antibody) (antibody, V domains shown)
VH: QVQLVQSGGGVVQPGRSLRLSCAASGFTFSSYGMHWVRQAPGKGLEWVAVIWYDGSRQYYADSVKGRFTISRDDSKNTMYLQMNSLRAEDTAVYYCARGGFWGAFDIWGQGTMVTVSS
VL: DVVMTQSPGTLSLSPGEGATLSCRASQHVISSYLAWYQQKPGQAPRLLVYGASSRDTGVSDRFTGSGSGTDFTLTISRLEPEDSAVYFCQQYGTSPWTFGQGTKLEIKR
notes: also called clone C2; KD6001-2

Experiments:
[1] = target: T1, Recombinant human CTLA-4-Fc fusion …; test: BLI (Fortebio), mAb captured on sensors, rhCTLA-4-Fc in solution 100 nM to 1.6 nM
Description: Kinetic analysis of binding to rhCTLA-4. […] The sensors were then blocked in the blocking solution for 5 min. Recombinant human CTLA-4-Fc protein was two-fold serial diluted in the blocking solution to 7 different concentrations, range from 100 nM to 1.6 nM. Kinetic association assays were started by putting antibody-capturing sensors into above serial diluted CTLA-4-Fc solutions. One sensor was immersed into the blocking solution as negative control. After 5 min binding, all sensors were moved to the blocking solution to start kinetic dissociation assays. Assays were stopped after 7 min.

[2] = target: T1, Recombinant human CTLA-4-Fc fusion …; test: ELISA, plates coated with purified rhCTLA-4, 4-parameter fit; C5 mAb
[3] = target: T1, Recombinant human CTLA-4-Fc fusion …; test: ELISA on coated rhCTLA-4, goat anti-human IgG F(ab') alkaline phosphatase, OD 415 nm
[4] = target: T1, Recombinant human CTLA-4-Fc fusion …; test: ELISA on coated CTLA-4 (rhCTLA-4-Fc), scFv phage at one amount, anti-M13-HRP, absorbance at 450 nm
[5] = target: T1, Recombinant human CTLA-4-Fc fusion …; test: competition ELISA on coated rhCTLA-4-Fc, 10 ng/ml biotin-B7-1-Fc mixed with the antibody, streptavidin alkaline phosphatase, absorption at 405 nm
Description: Human recombinant CTLA-4-Fc (2 ug/ml) in 50 ul of 20 mM NaHCO3, pH 9.7 was coated on 96-well plates and incubated at 4° C. overnight. After rhCTLA-4-Fc was removed, the plates were blocked with 100 ul of 3% BSA in wash/dilution buffer (TBS buffer, pH 7.0 containing 0.05% Tween-20) at 37° C. for 2 hours. […] The mixtures (50 ul/well) were added to rhCTLA-4-Fc coated plates and incubated at 37° C. for 2 hours. The solution was decanted, and the plates were washed 3 times with wash buffer. Alkaline phosphatase conjugated streptavidin (Herochem Inc., China) was diluted 2500-fold in binding buffer and add 50 ul/well to plates. After the plates were incubated at 37° C. for 2 hours, the AP-streptavidin solution was decanted, and the plates were washed 6 times with wash buffer. Alkaline phosphatase substrate pNpp solution was added 50 ul/well to plates. The plates were incubated at 37° C. for 20 min and read at 405 nm using a Bio-Rad microplate reader. […] All samples were tested in duplicate.

[6] = target: T1, Recombinant human CTLA-4-Fc fusion …; test: ELISA, plates coated with purified rhCTLA-4, 4-parameter fit; C2 mAb
[7] = target: T1, Recombinant human CTLA-4-Fc fusion …; test: ELISA on coated rhCTLA-4, goat anti-human IgG F(ab') alkaline phosphatase, OD 415 nm; remark: listed apart in the source

Binder	Kd [1] [nM]	koff [1] [s⁻¹]	kon [1] [M⁻¹ s⁻¹]	EC50 [2] [µg/mL]	EC50 (read off the curve) [3] [µg/mL]	binding result [4]	IC50 (read off the curve) [5] [µg/mL]	EC50 [6] [µg/mL]	EC50 (read off the curve) [7] [µg/mL]
B1	2.2	0.00061	280000	0.066	~0.08	–	–	–	–
B2	–	–	–	–	–	binds	–	–	–
B3	0.86	0.00048	550000	–	–	–	~0.03	0.025	~0.03
